Assay results taken from FireProtDB (doi:10.1016/0022-2836(92)90906-z).

Conditions: Bacillus amyloliquefaciens; pH 6.3; 25 °C; Urea; Fluorescence; MES 1.00 M; NaCl 613 mM; reversible: yes; whole UniProt chain shown

B1: Ribonuclease wild type, P00648 (protein)
chain: MMKMEGIALKKRLSWISVCLLVLVSAAGMLFSTAAKTETSSHKAHTEAQVINTFDGVADYLQTYHKLPDNYITKSEAQALGWVASKGNLADVAPGKSIGGDIFSNREGKLPGKSGRTWREADINYTSGFRNSDRILYSSDWLIYKTTDHYQTFTKIR
- denaturant m value: 1.93 kcal/mol/M
- denaturant midpoint (higher = more stable): 4.57 M
- unfolding free energy: 8.8 kcal/mol
